Assay results from patent US20260078398A1, “PLANTS GENETICALLY ENGINEERED FOR INCREASED WATER USE EFFICIENCY AND CARBON INTAKE AND METHODS FOR MAKING AND USING THEM” (The Regents of the University of California, priority 2022, published 2026).
Residue numbers refer to the chain shown, from its start. Names may count otherwise.

Experiments:
CBC1 = experiment: HT1-dependent CBC1 kinase activation, in vitro phosphorylation and in-gel kinase assays; format: biochemical, Arabidopsis; conditions: kinase inactive isoforms, histone as substrate
Description: A previous study reported that the HT1 kinase phosphorylates the CBC1 kinase in vitro (13). Whether this phosphorylation of CBC1 affects CBC1 activity remains unknown. We confirmed CBC1 phosphorylation by HT1 using recombinant His-HT1 and GST-CBC1 proteins by in vitro phosphorylation assays using radioactive ^32P-ATP (FIG. 5). Moreover, phosphorylation levels of histone, an artificial kinase substrate, were increased at the same time. […] In-gel kinase assays were pursued to test this hypothesis and provide direct evidence of HT1-dependent CBC1 kinase activation (FIG. 1A). […] We identified in vitro phosphorylation sites in CBC1 using mass spectrometry by analyzing recombinant CBC1 protein in the presence or absence of HT1 (FIG. 1C). We found two HT1-dependent phosphorylation sites (Thr-256 and Ser-280) that lie within or near the activation-loop of CBC1.
FIG. 1. […] Histone was used as an artificial phosphorylation substrate of CBC1. • (C) Recombinant CBC1 proteins were incubated with or without HT1 and ATP, and CBC1 phosphorylation sites were identified by mass spectrometry. The red fonts indicate HT1-dependent phosphorylation sites. CBC1 autophosphorylation sites detected without HT1 addition are labeled in black fonts. […] CBB gels show loading controls.

[1] = system: MPK4/12, HT1 and CBC1 recombinant proteins; experiment: in vitro phosphorylation assay: NaHCO3-dependent down-regulation of HT1-mediated CBC1 phosphorylation; format: biochemical, Arabidopsis; conditions: isoform replaces wild type protein or is added; 20 mM NaHCO3 vs NaCl control, 30 min
Method: We tested whether this HT1-mediated activation of CBC1 is inhibited by CO2/bicarbonate by adding NaHCO3 in in vitro phosphorylation reactions. […]
FIG. 2. […] Histone was used as an artificial protein kinase substrate. • (B) MPK4, HT1 and CBC1 proteins were incubated with NaHCO3 at the indicated concentrations for 30 min, and in vitro phosphorylation assays were performed. • (C) CBC1 band intensities as shown in (B) were measured using IMAGEJ™, n=4 experiments, error bars show ±S.D. • (D) MPK4, HT1 and CBC1 proteins were incubated in reaction buffers adjusted at different pH (6.5 to 8.5) for 30 min, and in vitro phosphorylation assays were performed. • (E) CBC1 band intensities and the density-ratios of ‘+NaHCO3’ to ‘—NaHCO3’ (=+NaCl controls) for each pH condition
FIG. 3. […] Ambient CO2 concentrations are indicated by the top bars. n=7 experiments, error bars show ±SEM. • (C) Recombinant HT1 (wild type, HT1-G89R or HT1-R173Q) and CBC1 proteins were incubated with MPK4 in the presence or absence of 20 mM NaHCO3 or 20 mM NaCl (−controls) for 30 min, and in vitro phosphorylation assays were performed. • (D) Recombinant MPK12, CBC1 and HT1 (WT or R102K) proteins were incubated with or without 20 mM NaHCO3 or 20 mM NaCl (−controls) for 30 min, and in vitro phosphorylation assays were performed. Histone was used as an artificial kinase substrate. • (E) HT1 (WT or A109V) proteins were used for in vitro phosphorylation assays. Proteins were incubated with or without 20 mM NaHCO3 or 20 mM NaCl (−controls) for 30 min. • (F) Stomatal conductances were analyzed using intact plants of Arabidopsis (Col-0 (WT), cbc1 cbc2, ht1-A109V and cbc1 cbc2 ht1-A109V). CO2 concentration changes were applied as indicated on top (p.p.m.). […]

MPK4 and HT1 = experiment: in vitro pull-down assay, His-HT1 with GST-MPK4; format: binding, Arabidopsis; conditions: pull-down with or without 20 mM NaHCO3
Method: We therefore investigated a possible binding between MPK4 and HT1 and the effect of HCO3^−.
FIG. 4. […] CO2 concentration changes were applied as indicated on top (p.p.m.). n=6 experiments, error bars show ±SEM. • (J) Model of plant stomatal CO2 sensor and signaling (see text).
FIG. 6. […] Precipitated proteins were washed with buffers supplemented with NaHCO3 at the indicated concentrations (0, 2 or 20 mM). See FIG. 4d for an independent experiment. To control for effects of Na^+, 20 mM NaCl (0 mM NaHCO3) for lanes 1 and 4 were included in the buffers; and 18 mM NaCl (2 mM NaHCO3) for lane 3 were included in buffer.

[2] = biological target: T1, His-HT1 (recombinant Arabidopsis HT1 protein kinase, wild type, with His tag)
T1 chain: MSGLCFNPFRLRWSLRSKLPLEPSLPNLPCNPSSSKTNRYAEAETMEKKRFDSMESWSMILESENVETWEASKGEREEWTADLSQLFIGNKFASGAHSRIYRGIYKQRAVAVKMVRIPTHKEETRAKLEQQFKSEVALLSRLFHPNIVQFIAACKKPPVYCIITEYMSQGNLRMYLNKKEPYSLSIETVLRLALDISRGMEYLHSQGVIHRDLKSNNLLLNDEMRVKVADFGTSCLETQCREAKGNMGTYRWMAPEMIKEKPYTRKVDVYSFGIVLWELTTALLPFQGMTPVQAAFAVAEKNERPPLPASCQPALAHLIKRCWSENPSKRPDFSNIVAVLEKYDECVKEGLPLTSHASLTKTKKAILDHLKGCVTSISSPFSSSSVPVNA

B1: HT1-K113W: kinase inactive HT1 mutant (protein)
chain: T1 chain with K113W
In the case of B1, the “HT1-dependent activation/phosphorylation of CBC1” value (CBC1) is reported as “did not activate CBC1”.

B2: HT1-G89R: recombinant HT1 protein kinase isoform with dominant G89R mutation (protein)
chain: T1 chain with G89R
For B2, the “NaHCO3-mediated down-regulation of CBC1 phosphorylation/activity with the protein isoform in the reaction” value [1] was “no NaHCO3-mediated inhibition of CBC1 activity” and the “HCO3- dependent binding of HT1 isoform with MPK4” value (MPK4 and HT1) was “disrupts the HCO3^−-dependent binding with MPK4”.

B3: CBC1-D253A: kinase inactive CBC1 isoform (protein, UniProt Q9SSA4 1-411, looked up, variant D253A)
Serine/threonine-protein …: MKEKAESGGGVGYVRADQIDLKSLDEQLQRHLSKAWTMEKRKSLSDGEDNVNNTRHNQNNFGHRQLVFQRPLLGGGYSNNNNSSKNDIIRSTEVEKSRREWEIDPSKLIIKSVIARGTFGTVHRGIYDGQDVAVKLLDWGEEGHRSDAEIASLRAAFTQEVAVWHKLDHPNVTKFIGAAMGTSEMSIQTENGQMGMPSNVCCVVVEYCPGGALKSFLIKTRRRKLAFKVVIQLSLDLARGLSYLHSQKIVHRAVKTENMLLDKSRTLKIADFGVARLEASNPNDMTGETGTLGYMAPEVLNGSPYNRKCDVYSFGICLWEIYCCDMPYPDLSFSEVTSAVVRQNLRPEIPRCCPSSLANVMKRCWDANPEKRPEMEEVVAMLEAIDTSKGGGMIPPDQQQGCFCFRRHRGP
In the case of B3, the “HT1-dependent activation/phosphorylation of CBC1” value (CBC1) is reported as “reduced phosphorylation level compared to wild type CBC1”.

B4: MPK12 (recombinant Arabidopsis MAP kinase MPK12) (protein)
chain: MSGESSSGSTEHCIKVVPTHGGRYVQYNVYGQLFEVSRKYVPPIRPIGRGACGIVCAAVNSVTGEKVAIKKIGNAFDNIIDAKRTLREIKLLRHMDHENVITIKDIVRPPQRDIFNDVYIVYELMDTDLQRILRSNQTLTSDQCRFLVYQLLRGLKYVHSANILHRDLRPSNVLLNSKNELKIGDFGLARTTSDTDFMTEYVVTRWYRAPELLLNCSEYTAAIDIWSVGCILGEIMTGQPLFPGKDYVHQLRLITELVGSPDNSSLGFLRSDNARRYVRQLPRYPKQQFAARFPKMPTTAIDLLERMLVFDPNRRISVDEALGHAYLSPHHDVAKEPVCSTPFSFDFEHPSCTEEHIKELIYKESVKFNPDH
With B4 the “CBC1 and histone phosphorylation in vitro (HT1 + CBC1 + MPK12, 20 mM NaHCO3; FIG. 2A, n>6)” value [2] was “when MPK4 or MPK12 were added to the reaction, we found that the addition of NaHCO3, but not NaCl, inhibited both CBC1 phosphorylation and histone phosphorylation in vitro” and the “HT1 kinase activity, in vitro phosphorylation assay with or without 20 mM NaHCO3 (FIG. 4B, n=3)” value [2] was “HT1 kinase activity was inhibited in response to NaHCO3, only in the presence of MPK12”.

B5: MPK12-K70R: kinase inactive MPK12 isoform (protein)
chain: B4 chain with K70R
In the case of B5, the “NaHCO3-mediated down-regulation of CBC1 phosphorylation/activity with the protein isoform in the reaction” value [1] is reported as “retained the ability to mediate CO2/bicarbonate-induced CBC1 inhibition”.

B6: His-BdMPK5 (D90N), chill1 variant isoform (protein)
chain: MRMEGGGAGPAAAAAAGGAHGLGEAQIKGTLTHGGRYVQYNVYGNLFEVSAKYVPPIRPVGRGACGIICAAINVQTREEVAIKKIGNAFNNQIDAKRTLREVKLLRHMNHENVISIKDIIRPPRRENFNDVYIVYELMDTDLHHLLRSNQPLTDDHCQYFLYQVLRGLKYVHSANVLHRDLRPSNLLLNAKCDLKIGDFGLARTTTETDFMMEYVVTRWYRAPELLLNCSEYTGAIDMWSVGCILGEIATREPLFPGKDYVHQLRLITELLGSPDDTSLGFLRSDNARRYVRSLPQYPKQQFRSRFPNMSSGAMDLLERMLVFDPNKRITVDEALCHPYLASLHEINDEPVCPAPFSFDFEQPSFTEEDIKELIWRESVKFNPEPIH
In the case of B6, the “CBC1 phosphorylation, in vitro phosphorylation assay with GST-CBC1, His-HT1 and His-BdMPK5 (D90N), with or without 20 mM NaHCO3 (n=2)” value [2] is reported as “The BdMPK5-D90N variant protein abrogated the high CO2/bicarbonate-mediated downregulation of CBC1 phosphorylation”.

B7: His-BdMPK5 (WT), recombinant Brachypodium distachyon BdMPK5 (protein)
chain: B6 chain with N90D
For B7, the “CBC1 protein kinase activity, in vitro phosphorylation assay with GST-CBC1, His-HT1 and His-BdMPK5, with or without 20 mM NaHCO3 (n=2)” value [2] was “HT1 and CBC1 together with the BdMPK5 protein showed a high CO2/bicarbonate-induced down-regulation of the CBC1 protein kinase activity”.
